6 molecules from US20230365705A1 (DYNAMICURE BIOTECHNOLOGY, published 2023) can be followed below.

Experiment [1] has as its target T1, Human CD93 on cells (human CD93 expressing CHO cells; HUVEC, U937 and KG1a cells) (human, UniProt Q9NPY3 22-652).
T1 construct: whole, on cells; also called hCD93 expressing CHO cells; hCD93 CHO cells
T1 sequence (looked up): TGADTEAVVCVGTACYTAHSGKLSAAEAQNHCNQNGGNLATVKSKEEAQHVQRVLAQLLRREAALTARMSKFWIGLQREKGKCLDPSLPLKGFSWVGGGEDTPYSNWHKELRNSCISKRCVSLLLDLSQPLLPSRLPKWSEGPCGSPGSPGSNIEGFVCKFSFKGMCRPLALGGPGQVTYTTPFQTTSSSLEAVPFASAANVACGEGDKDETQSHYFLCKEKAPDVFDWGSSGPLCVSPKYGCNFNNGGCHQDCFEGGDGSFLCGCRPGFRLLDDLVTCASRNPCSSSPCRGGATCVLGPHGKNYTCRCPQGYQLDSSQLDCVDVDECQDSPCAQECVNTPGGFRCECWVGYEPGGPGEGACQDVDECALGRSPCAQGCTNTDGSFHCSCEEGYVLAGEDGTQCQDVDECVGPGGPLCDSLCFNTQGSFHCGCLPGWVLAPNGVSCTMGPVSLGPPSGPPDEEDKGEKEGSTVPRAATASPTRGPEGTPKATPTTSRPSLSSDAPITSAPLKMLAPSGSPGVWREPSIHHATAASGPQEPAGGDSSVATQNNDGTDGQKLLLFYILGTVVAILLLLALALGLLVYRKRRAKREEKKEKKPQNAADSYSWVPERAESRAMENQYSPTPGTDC
The experiment is described as follows: flow cytometry, CHO cells overexpressing human CD93, antibody 0.01ug, mIgG1 as control, APC-A. Background: A flow cytometer gives signals particle by particle.

The target in experiment [2] is T1, Human CD93 on cells (human CD93 …). As to the kind of experiment: flow cytometry titration on HUVEC cells -human serum; column head printed kd, unit from the axis log (concentration (M)). As to the method:
(§1) Recombinant parental anti-CD93 antibodies were evaluated for their ability to bind to HUVEC cells in the presence or absence of human serum. […] Antibodies were purified using Protein G Sepharose. The resulting antibodies were tested for its binding capacity to a variety of cells that express CD93. […] Cells were quenched with media then counted. Cells were resuspended in FACS buffer (ice cold PBS with 0.5% BSA) and human serum was added to 20% (10% final volume) and put on ice for approximately 20 minutes. 5×10⁴ cells were seeded per well in 100 μL media and incubated with serial diluted anti-CD93 antibodies in 100 μL on ice for 2 hours. Cells were then washed by spinning cells at 1200 rpm for 5 min. Media was discarded and cells were resuspended in 200 μL ice cold FACS buffer. The wash step was repeated and cells were resuspended in 100 μL of secondary antibody, AlexaFluor647 conjugated anti-human IgG or anti-mouse IgG antibodies (Jackson ImmunoResearch), diluted 1:500 in FACS buffer. Plates were blocked from light and incubated 1 hour at 4° C. Cells were then washed again then were resuspended in 200 μL ice cold FACS buffer. Cells were washed again and resuspended in 200 μL fixing solution (PBS with 1% formaldehyde). Samples were stored at 4° C. covered in foil, then were acquired in NovoCyte Flow Cytometer and analyzed by NovoExpress software.

Experiment [3] shares this target. As to the kind of experiment: flow cytometry titration on HUVEC cells +human serum; column head printed kd, unit from the axis log (concentration (M)). The procedure: as §1
Experiment [4] has the same target. As to the kind of experiment: flow cytometry titration on human CD93 CHO cells; column head printed kd, unit from the axis log (concentration (M)). As to the method: Cells were quenched with media then counted. Cells were resuspended in FACS buffer (ice cold PBS with 0.5% BSA) and human serum was added to 20% (10% final volume) and put on ice for approximately 20 minutes. 5×10⁴ cells were seeded per well in 100 μL and incubated with serial diluted anti-CD93 antibodies in 100 μL on ice for 2 hours. Samples were then washed by spinning samples at 1200 rpm for 5 minutes. Media was discarded and cells were resuspended in 200 μL ice cold FACS buffer. Cells were washed again and resuspended in 100 μL of secondary Antibody, AlexaFluor647 conjugated anti-human IgG or anti-mouse IgG antibodies (Jackson ImmunoResearch), diluted 1:500 in FACS buffer. Plates were covered with foil to protect from like and incubated for 1 hour on ice. Cells were washed again resuspended in 200 μL ice cold FACS buffer. Cells were washed again and were resuspended in 200 μL fixing solution (PBS with 1% formaldehyde). Samples were stored at 4° C. covered in foil, then were acquired in NovoCyte Flow Cytometer and analyzed by NovoExpress software.

Experiment [5] has the same target. The experiment is described as follows: flow cytometry titration on U937 cells -human serum; column head printed kd, unit from the axis log (concentration (M)). As to the method:
Cells were quenched with media then counted. Cells were resuspended in FACS buffer (ice cold PBS with 0.5% BSA) and put on ice ˜20 min. 5×10⁴ cells were seeded per well in 100 μL and incubated with serial diluted anti-CD93 antibodies in 100 μL on ice for 2 hours. Samples were then washed by spinning samples at 1200 rpm for 5 minutes. Media was discarded and cells were resuspended in 200 μL ice cold FACS buffer. Cells were washed again and resuspended in 100 μL of secondary Antibody, AlexaFluor647 conjugated anti-human IgG or anti-mouse IgG antibodies (Jackson ImmunoResearch), diluted 1:500 in FACS buffer. Plates were covered with foil to protect from light and were incubated for 1 hour on ice. Samples were then washed again and resuspended in 200 μL ice cold FACS buffer. Cells were washed again and resuspended in 200 μL fixing solution (PBS with 1% formaldehyde). Samples were stored at 4° C. covered in foil, ands were subsequently acquired in NovoCyte Flow Cytometer and analyzed by NovoExpress software.

Experiment [6] addresses T2, Human CD93 recombinant protein (Sino Biological Inc, Catalog #12589-H08H) (human, UniProt Q9NPY3 22-580).
T2 construct: Biotinylated (EZ-LINK NHS-PEG4 biotin) in the BLI assays; also called hCD93; His-tagged human CD93
T2 sequence (looked up): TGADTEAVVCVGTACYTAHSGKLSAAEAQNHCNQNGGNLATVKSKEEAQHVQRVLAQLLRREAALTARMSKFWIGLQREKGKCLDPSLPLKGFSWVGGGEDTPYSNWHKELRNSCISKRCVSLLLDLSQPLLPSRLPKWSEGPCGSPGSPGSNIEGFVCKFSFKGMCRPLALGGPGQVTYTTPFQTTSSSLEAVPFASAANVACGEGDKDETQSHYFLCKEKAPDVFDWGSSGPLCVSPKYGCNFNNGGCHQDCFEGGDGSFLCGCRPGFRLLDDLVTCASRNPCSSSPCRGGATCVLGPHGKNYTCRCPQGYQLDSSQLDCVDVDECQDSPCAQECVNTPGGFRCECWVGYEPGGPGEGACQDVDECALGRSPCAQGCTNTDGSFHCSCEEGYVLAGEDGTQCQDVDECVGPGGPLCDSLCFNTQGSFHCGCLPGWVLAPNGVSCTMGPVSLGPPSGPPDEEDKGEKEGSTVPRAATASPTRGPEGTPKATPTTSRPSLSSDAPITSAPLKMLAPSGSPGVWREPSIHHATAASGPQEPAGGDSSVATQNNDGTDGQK
As to the kind of experiment: ELISA, His-tagged human CD93 coated, OD450. As to the method: His-tagged human CD93 was coated onto a 96 well plate at 1 μg/mL in 1×PBS overnight at 4° C. The plate was washed with ELISA wash buffer (Boston BioProduct, Inc.) and the wells were blocked with ELISA blocking buffer for 1 hour at 37° C. […] The plate was washed with ELISA wash Buffer. […] The plate was washed with ELISA wash Buffer. HRP substrate was added for indirect detection of the antibodies binding to CD93.
(ELISA stands for enzyme-linked immunosorbent assay.)

Experiment [7] deals with T1, Human CD93 on cells (human CD93 …). The experiment is described as follows: flow cytometry blocking assay, CHO-hCD93 cells, antibody 50 ug/ml then MMRN2 0.1 ug/ml, APC-A. The procedure:
(§2) After incubation, the cells were washed with FACS buffer and incubated with anti-His conjugated APC or streptavidin conjugated APC at a ratio of 1:500 for 30 minutes at 4° C. After washing with FACS buffer twice, the samples were analyzed and data acquired in NovoCyte Flow.

Experiment [8] has the same target. The experiment is described as follows: flow cytometry, CHO-hCD93 cells, APC-A.
Experiment [9] has the same target. As to the kind of experiment: flow cytometry blocking assay, CHO-hCD93 cells, antibody 50 ug/ml then MMRN2 0.5 ug/ml, APC-A. The procedure:
as §2

Experiment [10] addresses T2, Human CD93 recombinant protein (Sino …). As to the kind of experiment: BLI (Octet), human CD93; sheet prints Anti-Penta-HIS(HIS1K) biosensor. For orientation: In BLI a coated tip is dipped into the sample, and binding shifts an interference pattern.

B1: humanized 17B10 H3L2 (antibody, mouse IgG1, V domains shown)
VH: QVQLVQSGPEVKKPGESLKISCKASGYAFSSYWLNWVRQMPGKGLEWMGRIYPGDGDTDYNGKFKGQVTISADKSSGTAYLQLSSLKASDTAVYFCVRGDGYWAMDYWGQGTLVTVSS
VL: DIVMTQTPLSLPVTPGEPASISCRFSQSLLHSNGITYLYWYLQKPGQSPQLLIYTMSNLASGVPDRFSGSGSGTDFTLKISRVEAEDVGVYYCAQNLELPWTFGGGTKLEIK
notes: Chimeric Fc: human CH1, mouse IgG1 CH2 and CH3
In the case of B1, the “M2 gate, % of cells” value in [1] came out at 96.7%.

B2: Recombinant parental 7F3 with a human CH1 domain and mouse IgG1 CH2 and CH3 Fc domains (antibody, V domains shown)
VH: QVQLQQSGADLVRPGASVKLSCKASGYTFTDYEMHWVKQTPVYGLEWIGGIDPETGDTAYNQNFKGKATLTADKSSSAAYMELRSLTSEDSAVYYCTNYGNLYYYAMDYWGQGTSVTVSS
VL: ENVLTQSPAIMSASPGEKVTMTCRASSSVSSSYLHWYQQKSGASPKLWIYSTSNLAFGVPARFSGSGSGTSYSLTISSVEAEDAATYYCQQYSGYPLTFGSGTKLEIK
As for B2, the Kd – broadly, the equilibrium constant for the complex coming apart – in experiment [2] worked out at 0.741 nM; in experiment [3] it was 3.43 nM; in experiment [4], 0.0757 nM; in experiment [5], 0.0234 nM.

B3: Recombinant parental 16E4 with a human CH1 domain and mouse IgG1 CH2 and CH3 Fc domains (antibody, V domains shown)
VH: QVQLQQPGAELVKPGASVKLSCKASGYTFTSYWMHWVKQRPGQGLEWIGEIDPSASYTYYNQKFKGKATLTVDKSSSTAYMQLSSLTSEDSAVYYCARSVYYGNKYFDVWGAGTTVTVSS
VL: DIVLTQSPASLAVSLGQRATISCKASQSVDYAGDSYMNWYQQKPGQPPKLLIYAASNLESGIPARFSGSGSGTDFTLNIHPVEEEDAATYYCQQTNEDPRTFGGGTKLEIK
Consider B3, for which the Kd in experiment [2] was 0.174 nM; in [3], 0.314 nM; in [4], 0.14 nM; in experiment [5] it was 0.0629 nM.

B4: 17B10 (hybridoma) (antibody, V domains shown)
VH: QVQLQQSGPELVKPGASVKISCKASGYAFSSYWLNWVKQRPGKGLEWFGRIYPGDGDTDYNGKFKGKATLTADKSSSTAYMQLRSLTSEDSAVYFCVRGDGYWAMDYWGQGTSVTVSS
VL: DIVMTQAAFSNPVTLGTSASISCRFSKSLLHSNGITYLYWYLQKPGQSPQLLIYQMSNLASGVPDRFSSSGSGTDFTLRISRVEAEDVGVYYCAQNLELPWTFGGGTKLEIK
notes: Mouse hybridoma monoclonal antibody
With B4, in experiment [6], the EC50 (commonly the concentration at which the effect is half-maximal) came out at 0.153 nM.

B5: 17B10-hIgG1 (recombinant parental 17B10-hFc) (antibody, V domains shown)
VH: QVQLQQSGPELVKPGASVKISCKASGYAFSSYWLNWVKQRPGKGLEWFGRIYPGDGDTDYNGKFKGKATLTADKSSSTAYMQLRSLTSEDSAVYFCVRGDGYWAMDYWGQGTSVTVSS
VL: DIVMTQAAFSNPVTLGTSASISCRFSKSLLHSNGITYLYWYLQKPGQSPQLLIYQMSNLASGVPDRFSSSGSGTDFTLRISRVEAEDVGVYYCAQNLELPWTFGGGTKLEIK
notes: also called recombinant parental 17B10 with the human Fc; 17B10 chimeric
Take B5: the EC50 in experiment [6] was 0.0167 nM.

B6: 10B1 (antibody, V domains shown)
VH: QVQLKQSGPGLVQPSQSLSITCTVSDFSLSSFGVNWVRQPPGKGLEWLGVIWSGGSTDYNVAFISRLSISKDNSKSQVFFKMNNLQADDTAIYYCARNWRYDGYFYAMDYWGQGTSVTVSS
VL: DIVMTQSQKFMSTSTGDRVSVTCKASQNVGTNVAWYQQKPGQSPKALIYSASYRFIGVPDRFTGSGSGTDFTLTITNVQSEDLAEYFCQQYNRNPITFGSGTKLEIK
notes: as for B4
Regarding B6, in [7], the “M3 gate, % of cells positive for MMRN2 after the antibody” value was found to be 29.4%. In addition, in [8], the “M3 gate, % of cells” value was 97.3%. In experiment [9], the “M3 gate, % of cells positive for MMRN2 after the antibody” value was 47.2%. Moreover, in experiment [10], the dissociation constant Kd worked out at 0.904 nM; the koff – broadly, the first-order rate constant of dissociation – is 0.000116 s⁻¹; the on-rate (kon) (as a rule, the second-order rate constant of association) was 128000 M⁻¹ s⁻¹.
